We go through 1 molecule from article PMC11849073, “Specific recognition mechanism of an antibody to sulfated tyrosine and its potential use in biological research” (The Journal of Biological Chemistry, 2025).

Experiment [1] concerns sulfated N-terminal peptide of CCR5. The experiment in a line: SPR kinetic interaction analysis of BA8 Fab (wild type and mutants) with the sulfated peptide. The experiment is classed as binding. The conditions noted are these: SPR Biacore 8K, PBS 0.005% Tween 20, global fitting. From the text:
To quantitatively evaluate the intermolecular interaction between BA8 and the sulfated N-terminal peptide of CCR5, we prepared a Fab fragment of BA8 as a recombinant protein (Fig. S2, A and B) and conducted kinetic interaction analysis using SPR. The Fab was immobilized on a sensor chip using amine coupling, and the synthesized sulfated and non-sulfated N-terminal peptides of CCR5 were used as the analytes.
To further dissect how molecular recognition occurs, we evaluated the contribution of individual residues of BA8 to the recognition of the sulfated peptide. We analyzed the crystal structure using the PDB PISA server, and we conducted mutation analyses in which the residues predicted to form hydrogen bonds or located at the interface were mutated to alanine (Fig. 3B).
The bindings of the peptides to Fabs were analyzed using a Biacore 8K instrument (Cytiva). Each Fab was immobilized on the surface of a CM5 sensor chip (Cytiva) by the amine-coupling method according to the manufacturer’s instructions in the condition of pH 5.5. The immobilization level reached to about 3000 Response Unit (RU). PBS containing 0.005% Tween 20 was used as the running buffer. The kinetic data were obtained by injection of increasing concentrations of peptides into the sensor chip. The flow rate of the analyte were set to 30 μl/min. The data were analyzed using BIAevaluation software (Cytiva), and the binding affinity as well as kinetic parameters were calculated by a global fitting of the curves.
(In general: Surface plasmon resonance follows binding to a sensor surface in real time, without labels.)

The test system of experiment [2] is YU2 (CCR5 tropic strain) strain in TZM-bl cells. The experiment in a line: Pseudoviral assay (single-round viral infective assay) in TZM-bl cells. The experiment is classed as cell-based, HIV. The note with it: 48 h post-infection, luciferase read-out, BA8 up to 50 μg/ml (approximately 350 nM).
Description: Subsequently, we conducted a pseudoviral test using TZM-bl cells.
The anti-HIV activity of BA8, isotype control antibody, and Maraviroc (Sigma-Aldrich) in a single-round viral infective assay against the YU2 (CCR5 tropic strain) strain in TZM-bl cells. At 48 h post-infection, cells were lysed, and relative light units were measured using a Steady-Glo luciferase assay system and GloMax Discover microplate reader (Promega).
The mark [3] stands for this setting: Fab immobilized on CM5 chip, sulfated peptide as analyte.

“Also recorded” adds a separate entry of the source.

B1: BA8: rabbit antibody clone from phage display that specifically recognizes the sulfated N-terminal peptide of CCR5 (antibody, V domains shown)
VH: QSLEESGGGLFKPTDTLTLTCTVSGFSLSSYSIRWVRQAPGNGLEWIGAIGSGGNAYYTSWAKSRSTITRNTNENTVTLKMTSLTVADTATYFCARGGINFGIWGPGTLVTVSS
VL: AAVLTQTPSPVSAAVGSTVTINCQSSQSVYSKNWLSWFQQKPGQPPKQLIYSASTLDSGVPSRFSGSGSGTQFTLTISGVQCDDAATYYCQGTYGDASAFGGGTEVVVK
In experiment [1] (Fab immobilized on CM5 chip by amine coupling (~3000 RU), sulfated peptide as analyte (2 to 162 nM; 20 nM to 1620 nM for the weak mutants of Fig. 3), 30 μl/min), B1 showed a kon of 251000 mol/L/s. In experiment [1] (setting [3]), this molecule registered a Kd of 809 pM and a koff of 0.000203 s⁻¹. The “inhibition of HIV infection, in words” value in experiment [2] is “did not significantly inhibit the infection; also recorded: did not show inhibitory activity”.

Usually Kd stands for a measure of binding affinity in units of concentration. Low readings indicate tighter binding, high ones weaker binding. The koff is the rate constant with which the complex falls apart.
